# Test results as given in PMC3045619 (Nucleic Acids Research, 2010).
# Key:
# [1] = target: χ subunit of DNA polymerase III of E. coli, wild-type (E. coli, UniProt P28905 1-147); assay: cross-linking
# χ K124A = χ K124A (E. coli, UniProt P28905 1-147, K124A); assay: cross-linking
binder,measurement,setting,value
"WMDFDDDIPF [SSB-Carb, peptide containing the last nine amino acids of EcoSSB]",binding result,[1],binds
same,binding result,χ K124A,binds
